Reference: publication PMC4265155, “A highly charged region in the middle domain of plant endoplasmic reticulum (ER)-localized heat-shock protein 90 is required for resistance to tunicamycin or high calcium-induced ER stresses” (Journal of Experimental Botany, 2014)

Substrate: Nc1ncnc2c1ncn2[C@@H]1O[C@H](COP(=O)(O)OP(=O)(O)OP(=O)(O)O)[C@@H](O)[C@H]1O
Assay: NADH-coupled ATPase assay (pyruvate kinase / lactate dehydrogenase)
Type: biochemical, Arabidopsis thaliana
Conditions: geldanamycin-sensitive activity, 25 mM HEPES pH 7.5, 5 mM MgCl2, 400 mM KCl, 0.03% Tween 20, 10% glycerol
From the text: NADH-coupled ATPase assay (pyruvate kinase / lactate dehydrogenase) on HSP90.7 (AtHSP90.7; mature form R73–L823)

[1] = HSP90.7^Δ22 (D488–G509 deleted by SpeI cleavage and religation; a SpeI-site scar may remain)

B1: HSP90.7 (AtHSP90.7; mature form R73–L823) (Arabidopsis thaliana) (protein)
chain: RSNAEKFEFQAEVSRLMDIIINSLYSNKDIFLRELISNASDALDKIRFLALTDKDVLGEGDTAKLEIQIKLDKAKKILSIRDRGIGMTKEDLIKNLGTIAKSGTSAFVEKMQSSGDLNLIGQFGVGFYSAYLVADYIEVISKHNDDSQYVWESKANGKFAVSEDTWNEPLGRGTEIRLHLRDEAGEYLEESKLKELVKRYSEFINFPISLWASKEVETEVPVEEDESADEETETTSTEEEKEEDAEEEDGEKKQKTKKVKETVYEWELLNDVKAIWLRSPKEVTEEEYTKFYHSLSKDFTDEKPMAWSHFNAEGDVEFKAVLYVPPKAPHDLYESYYNSNKANLKLYVRRVFISDEFDELLPKYLSFLKGLVDSDTLPLNVSREMLQQHSSLKTIKKKLIRKALDMIRKLAEEDPDEIHDDEKKDVEKSGENDEKKGQYTKFWNEFGKSVKLGIIEDAANRNRLAKLLRFETTKSDGKLTSLDQYIKRMKKSQKDIFYITGSSKEQLEKSPFLERLIKKGYEVIFFTDPVDEYLMQYLMDYEDKKFQNVSKEGLKVGKDSKDKELKEAFKELTKWWKGNLASENVDDVKISNRLADTPCVVVTSKFGWSANMERIMQSQTLSDANKQAYMRGKRVLEINPRHPIIKELKDRIASDPEDESVKETAQLMYQTALIESGFILTDPKDFAARIYNSVKSGLNISPDAVADEEIEAAEEPETSEATETKSDDLAGGLNIEAEPVEQQEENTKDEL
notes: predicted mature form R73-L823, signal peptide removed, vector p11, E. coli BL21(DE3)-pRIL, His6-tag cut with TEV protease, size-exclusion purified
**Q.** How did the Km turn out when B1 was run?
**A.** 770 ± 180 µM

**Q.** And the kcat?
**A.** 0.0377 ± 0.00283 s⁻¹

**Q.** What about the kcat/Km of the same protein?
**A.** 49 ± 15.2 M⁻¹ s⁻¹

B2: HSP90.7 (AtHSP90.7; mature form R73–L823) (Arabidopsis thaliana; DEL488-509) (protein)
chain: RSNAEKFEFQAEVSRLMDIIINSLYSNKDIFLRELISNASDALDKIRFLALTDKDVLGEGDTAKLEIQIKLDKAKKILSIRDRGIGMTKEDLIKNLGTIAKSGTSAFVEKMQSSGDLNLIGQFGVGFYSAYLVADYIEVISKHNDDSQYVWESKANGKFAVSEDTWNEPLGRGTEIRLHLRDEAGEYLEESKLKELVKRYSEFINFPISLWASKEVETEVPVEEDESADEETETTSTEEEKEEDAEEEDGEKKQKTKKVKETVYEWELLNDVKAIWLRSPKEVTEEEYTKFYHSLSKDFTDEKPMAWSHFNAEGDVEFKAVLYVPPKAPHDLYESYYNSNKANLKLYVRRVFISDEFDELLPKYLSFLKGLVDSDTLPLNVSREMLQQHSSLKTIKKKLIRKALDMIRKLAEEDPQYTKFWNEFGKSVKLGIIEDAANRNRLAKLLRFETTKSDGKLTSLDQYIKRMKKSQKDIFYITGSSKEQLEKSPFLERLIKKGYEVIFFTDPVDEYLMQYLMDYEDKKFQNVSKEGLKVGKDSKDKELKEAFKELTKWWKGNLASENVDDVKISNRLADTPCVVVTSKFGWSANMERIMQSQTLSDANKQAYMRGKRVLEINPRHPIIKELKDRIASDPEDESVKETAQLMYQTALIESGFILTDPKDFAARIYNSVKSGLNISPDAVADEEIEAAEEPETSEATETKSDDLAGGLNIEAEPVEQQEENTKDEL
notes: as for B1
**Q.** Which results are given for B2?
**A.** Km [1]: 440 ± 110 µM; kcat [1]: 0.039 ± 0.0025 s⁻¹; kcat/Km [1]: 89 ± 27.8 M⁻¹ s⁻¹
